This assay concerns the target T1, 6×His tag human Pear1 extracellular segment (Leu-21-Ser; 754) (human, UniProt Q5VY43 21-754).
T1 construct: range 21-754; The ELISA and the Biacore test only say 'human Pear1 ECD protein' / 'extracellular segment'; also called human Pear1 ECD protein; human Pear1ECD protein; not shown: 6×His tag
T1 sequence (looked up): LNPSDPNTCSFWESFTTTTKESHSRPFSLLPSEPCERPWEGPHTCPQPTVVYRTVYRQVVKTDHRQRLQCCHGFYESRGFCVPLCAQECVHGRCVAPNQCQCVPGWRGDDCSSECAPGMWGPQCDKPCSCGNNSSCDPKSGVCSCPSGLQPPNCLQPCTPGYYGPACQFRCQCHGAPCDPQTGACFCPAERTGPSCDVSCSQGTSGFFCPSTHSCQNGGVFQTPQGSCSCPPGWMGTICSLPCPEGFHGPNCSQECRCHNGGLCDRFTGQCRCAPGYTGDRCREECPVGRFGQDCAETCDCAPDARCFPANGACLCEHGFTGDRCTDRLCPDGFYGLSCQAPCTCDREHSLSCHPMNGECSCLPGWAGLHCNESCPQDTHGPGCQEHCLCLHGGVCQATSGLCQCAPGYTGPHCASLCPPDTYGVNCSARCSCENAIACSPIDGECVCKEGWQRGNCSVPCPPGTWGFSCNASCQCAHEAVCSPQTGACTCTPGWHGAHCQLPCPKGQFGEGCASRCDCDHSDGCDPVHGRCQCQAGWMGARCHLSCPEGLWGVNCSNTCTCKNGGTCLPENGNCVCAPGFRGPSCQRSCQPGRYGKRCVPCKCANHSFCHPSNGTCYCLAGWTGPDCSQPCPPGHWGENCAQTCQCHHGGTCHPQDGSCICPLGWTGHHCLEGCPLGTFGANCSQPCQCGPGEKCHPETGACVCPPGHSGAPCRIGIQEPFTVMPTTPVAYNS
Briefly: ELISA, plate coated with human Pear1 ECD. On the procedure:
FIG. 6 The comparison of the affinities of the anti-human Pear1 antibodies to human Pear1. The ELISA plate was coated with human Pear1 ECD proteins and the reactions were conducted between antibodies at different concentrations (2000 ng/mL, 1000 ng/mL, 500 ng/mL, 250 ng/mL, 125 ng/mL, 62.5 ng/mL, 31.25 ng/mL, 15.625 ng/mL, 7.8125 ng/mL, 3.90625 ng/mL, 1.953125 ng/mL, 0.9765625 ng/mL) and the human Pear1 ECD proteins. OD value was measured to obtain the EC 50 value of the antigen-antibody combination
8.2.1 Comparison of antigen binding ability of these antibodies.
(In an ELISA, binding on a coated surface is turned into a signal by an enzyme label.)

B1: LF16 (antibody, V domains shown)
VH: EVQLQQSGPELVKPGASMKISCKASGYAFTGYTMNWVKQSHGKNLDWIGVINGYNGGTSYNQKFKGKATLTVDKSSSTAYMELLSLTSEDSAIYYCARGGPTTGFVYWGQGTLVTVSA
VL: DIQMTQTSSSFSVSLGDRVTITCKASEDIYNRLAWYQQKPGNAPRLLISGATSLETGVPSRFSGSGSGKDYTLSITSLQTEDVATYYCQQYWSTPTFGAGTKLELK
notes: Mouse monoclonal antibody from hybridoma
In general, EC50 refers to the midpoint of the concentration-response curve. With B1, the EC50 turned out to be 0.0547 µg/mL.

These data come from patent publication US20230088277A1 (SHANGHAI SYNVIDA BIOTECHNOLOGY, published 2023).
